In the supplement of paper PMC10266784:

B1: library; numbered along this chain (parent)
chain: MAAAAAAAAEQQSSNGPVKKSMREKAVERRSVNKEHNSNFKAGYIPIDEDRLHKTGLRGRKGNLAICVIILLFILAVINLIITLVIWAVIRIGPNGCDSMEFHESGLLRFKQVSDMGVIHPLYKSTVGGRRNENLVITGNNQPIVFQQGTTKLSVENNKTSITSDIGMQFFDPRTQNILFSTDYETHEFHLPSGVKSLNVQKASTERITSNATSDLNIKVDGRAIVRGNEGVFIMGKTIEFHMGGNMELKAENSIILNGSVMVSTTRLPSSSSGDQLGSGDWVRYKLCMCADGTLFKVQVTSQNMGCQISDNPCGNTH

Variants of: B1
Assay: SGCB cell-surface expression functional score (HA stain, bin4 vs bin1, normalised to synonymous) (log10 ratio); higher = more cell-surface SGCB (functional)
Method: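 Deep mutational scan of full-length human SGCB (YFP-SGCB-HA, NNN codon sublibraries A-F) delivered by lentivirus at low MOI into ADG-HEK293 cells stably expressing SGCA, SGCD and SGCG. YFP-positive cells were stained for surface HA on unpermeabilized cells and FACS-sorted into bins. The functional score is log10(frequency in high bin 4 / frequency in low bin 1), normalised per chunk so that synonymous variants have mean 0 and SD 0.5. Scores are the median over codons and over duplicate biological replicates; scores below -0.5 are called non-functional. Scale: negative means deleterious.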

SGCB cell-surface expression functional score (log10), by site and new letter:
I69: Q 0.03 | H 0.03 | S 0.09 | V -0.05 | E 0.15 | C 0.05 | F 0.52 | A -0.17 | W 0.3 | K -0.04 | P 0.36 | Y 0.41 | R 0.11 | L 0.2 | G 0.2 | T -0.01 | D -0.11 | M 0.22 | N 0.62
C67: A 0.57 | T -0.03 | Y 0.04 | H 0.38 | E 0.39 | S 0.04 | V 0.28 | G 0.18 | L 0.25 | D 0.11 | F -0.08 | K 0.29 | I 0.33 | Q 0.4 | W 0.43 | P 0.26 | N 0.19 | R 0.08 | M -0.01
L71: Y -0.5 | D -0.08 | P -0.04 | K 0.36 | N 0.19 | T 0.07 | S 0.06 | F -0.14 | V 0.22 | E 0.1 | M 0.01 | R -0.37 | A 0.26 | I -0.45 | Q 0.12 | G 0.23 | W 0.61 | C -0.37 | H 0.06
A65: K 0.51 | W 0.48 | N 0.06 | T -0.01 | L 0.15 | P -0.28 | Y 0.12 | M -0.02 | Q -0.13 | I 0.15 | S 0.01 | F 0.21 | H -0.17 | G -0.03 | R -0.07 | V 0.3
I66: M 0.3 | S 0.07 | Y 0.29 | W 0.01 | N 0.47 | E 0.12 | L -0.78 | T 0.03 | V 0.2 | P -0.35 | G 0 | R 0.43 | H -0.2 | K 0.5 | Q -0.15 | A -0.11 | C 0.65 | D 0 | F -0.03
F73: K 0.54 | L 0.03 | Y 0.84 | G 0.22 | E 0.42 | C 0.34 | V -0.23 | P 0.07 | Q 0.6 | A 0.13 | D 0.36 | R -0.59 | M -0.01 | N 0.47 | H 0.54 | T -0.22 | I -0.11 | S -0.15
L72: E -0.02 | I 0.41 | N -0.44 | H -0.05 | P -0.11 | M 0.13 | D -0.14 | W 0.28 | K -0.18 | G 0.44 | S -0.07 | A -0.23 | F 0.07 | V 0.27 | Q -0.21 | R -0.09 | C 0.42 | T 0.45 | Y -0.04
V68: K 0 | D -0.25 | Q -0.15 | S 0.36 | W 0.12 | R 0.06 | P 0 | Y -0.25 | L -0.04 | G 0.24 | I 0.05 | H -0.35 | C 0.91 | A -0.01 | M -0.35 | E -0.1 | N 0.03 | F 0.55 | T 0.29
I70: F -0.2 | E -0.22 | C -0.3 | Q 0.06 | S 0.36 | H -0.21 | Y -0.14 | G 0.35 | V 0.53 | T -0.22 | W 1.07 | L -0.1 | N 0.07 | K 0.19 | R -0.16 | D -0.14 | P 0.16 | M 0.77 | A 0.41
